Patent US20140294817A1 (LEUKOSIGHT, published 2014)

How the values were obtained:
Fcγ-receptor IV [1] = target: T1, Fcγ-receptor IV (mice); assay: flow cytometry saturation binding on HeLa cells expressing RFP-tagged FcγRIV (FIG. 61D, left panel)
T1 construct: whole, on cells; HeLa cells transfected with an FcγRIV plasmid, RFP-tagged; also called FcγRIV
T1 sequence (A0A0B4J1G0 whole entry, looked up): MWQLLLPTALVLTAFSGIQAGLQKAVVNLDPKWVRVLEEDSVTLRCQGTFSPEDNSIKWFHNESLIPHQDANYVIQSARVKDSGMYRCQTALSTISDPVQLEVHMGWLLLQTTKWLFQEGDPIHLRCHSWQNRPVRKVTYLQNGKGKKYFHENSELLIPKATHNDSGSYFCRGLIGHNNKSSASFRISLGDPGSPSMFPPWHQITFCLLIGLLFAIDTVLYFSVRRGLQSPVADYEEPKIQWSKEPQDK
Excerpt: (§1) There are four Fc-gamma receptors (FcγRs) in mice including: Fcγ-receptor I, Fcγ-receptor III, Fcγ-receptor IV, and Fcγ-receptor IIb. The genes for each of the Fcγ-receptor I, Fcγ-receptor III, Fcγ-receptor IV, and Fcγ-receptor IIb were cloned into four separate plasmids. […] A red fluorescent protein tag (RFP) is attached to the intracellular portion of the FcγR (FIG. 56A). Thus, binding to the FcγR of a transfected HeLa cell will result in a signal transduction that causes the cells to fluoresce red, which may be measured by flow cytometry.
(§2) Polypeptides comprising a first and second Fc fragment of rabbit IgG in dimeric form and whole rabbit IgG were quantified by ELISA, using the whole rabbit IgG as the standards. HeLa cells that express FcγRI, HeLa cells that express FcγRIIb, HeLa cells that express FcγRIII, and HeLa cells that express FcγRIV as described in Example 13 were stained with 2-fold series diluted either with polypeptides comprising a first and second Fc fragment of rabbit IgG in dimeric form or whole rabbit IgG. The cells were then stained with Zenon Alexa Fluor 488 rabbit IgG labeling kits. […] The HeLa cells that express FcγRI, HeLa cells that express FcγRIIb, HeLa cells that express FcγRIII, and HeLa cells that express FcγRIV were gated by red fluorescence (RFP); and the mean fluorescence of Alexa Fluor was measured for the Saturation Binding Curves (FIGS. 61A-D).

Fcγ-receptor IV [2] = target: T1, Fcγ-receptor IV; assay: flow cytometry saturation binding on HeLa cells expressing FcγRIV; reference rabbit IgG
Excerpt: as §1, §2

Fcγ-receptor IIb [3] = target: T2, Fcγ-receptor IIb (mice, UniProt P08101 30-330); assay: flow cytometry saturation binding on HeLa cells expressing FcγRIIb; reference rabbit IgG
T2 construct: whole, on cells; HeLa cells transfected with an FcγRIIb plasmid, RFP-tagged; also called FcγRIIb; not shown: red fluorescent protein tag (RFP) attached to the intracellular portion
T2 sequence (looked up): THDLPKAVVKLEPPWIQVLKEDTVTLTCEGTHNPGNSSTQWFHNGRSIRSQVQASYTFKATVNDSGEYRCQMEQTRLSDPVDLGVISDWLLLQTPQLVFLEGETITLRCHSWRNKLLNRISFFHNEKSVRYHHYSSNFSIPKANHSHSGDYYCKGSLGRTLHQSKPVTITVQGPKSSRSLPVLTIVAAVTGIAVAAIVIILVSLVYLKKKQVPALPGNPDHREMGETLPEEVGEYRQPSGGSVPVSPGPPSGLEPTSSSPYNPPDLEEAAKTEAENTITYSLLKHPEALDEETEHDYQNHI
Excerpt: as §1, §2

Fcγ-receptor I [4] = target: T3, Fcγ-receptor I (mice, UniProt P26151 25-404); assay: flow cytometry saturation binding on HeLa cells expressing FcγRI; reference rabbit IgG
T3 construct: whole, on cells; HeLa cells transfected with an FcγRI plasmid, RFP-tagged; also called FcγRI; not shown: red fluorescent protein tag (RFP) attached to the intracellular portion
T3 sequence (looked up): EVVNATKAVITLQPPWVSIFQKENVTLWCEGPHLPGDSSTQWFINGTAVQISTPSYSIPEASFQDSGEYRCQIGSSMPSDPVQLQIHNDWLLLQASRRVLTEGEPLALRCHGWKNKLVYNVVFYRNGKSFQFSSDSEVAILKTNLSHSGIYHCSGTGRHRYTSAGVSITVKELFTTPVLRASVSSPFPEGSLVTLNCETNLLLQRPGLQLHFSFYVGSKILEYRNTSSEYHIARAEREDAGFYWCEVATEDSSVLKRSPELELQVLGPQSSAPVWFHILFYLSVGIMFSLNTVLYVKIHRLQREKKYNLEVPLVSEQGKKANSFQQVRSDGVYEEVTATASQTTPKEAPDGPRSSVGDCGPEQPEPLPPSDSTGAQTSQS
Excerpt: as §1, §2

Fcγ-receptor IIb [5] = target: T2, Fcγ-receptor IIb; assay: flow cytometry saturation binding on HeLa cells expressing RFP-tagged FcγRIIb (FIG. 61B, left panel)
Excerpt: as §1, §2

Fcγ-receptor I [6] = target: T3, Fcγ-receptor I; assay: flow cytometry saturation binding on HeLa cells expressing RFP-tagged FcγRI (FIG. 61A, left panel)
Excerpt: as §1, §2

Fcγ-receptor III [7] = target: T4, Fcγ-receptor III (mice, UniProt P08508 31-261); assay: flow cytometry saturation binding on HeLa cells expressing RFP-tagged FcγRIII (FIG. 61C, left panel)
T4 construct: whole, on cells; HeLa cells transfected with an FcγRIII plasmid, RFP-tagged; also called FcγRIII; not shown: red fluorescent protein tag (RFP) attached to the intracellular portion
T4 sequence (looked up): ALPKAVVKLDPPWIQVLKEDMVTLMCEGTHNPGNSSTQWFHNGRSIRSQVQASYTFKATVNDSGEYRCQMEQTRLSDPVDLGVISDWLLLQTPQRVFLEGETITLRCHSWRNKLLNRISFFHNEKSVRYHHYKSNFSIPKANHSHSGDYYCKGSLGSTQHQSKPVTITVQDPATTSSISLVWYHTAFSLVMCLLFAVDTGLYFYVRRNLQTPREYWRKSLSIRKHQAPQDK
Excerpt: as §1, §2

Fcγ-receptor III [8] = target: T4, Fcγ-receptor III; assay: flow cytometry saturation binding on HeLa cells expressing FcγRIII; reference rabbit IgG
Excerpt: as §1, §2

- Kd (Fcγ-receptor IV [1]): ≤ 6.3 nM
- fold enhancement of binding against rabbit IgG (Fcγ-receptor IV [2]): ≥ 191 fold
- fold enhancement of binding against rabbit IgG (Fcγ-receptor IIb [3]): ≥ 61.7 fold
- fold enhancement of binding against rabbit IgG (Fcγ-receptor I [4]): ≥ 57.5 fold
- Kd (Fcγ-receptor IIb [5]): ≤ 9.8 nM
- Kd (Fcγ-receptor I [6]): ≤ 3.5 nM
- Kd (Fcγ-receptor III [7]): ≤ 10.4 nM
- fold enhancement of binding against rabbit IgG (Fcγ-receptor III [8]): ≥ 223 fold
B1: polypeptide comprising a first and second Fc fragment of rabbit IgG in dimeric form (Fc fusion)
chain: GGSHHHHHHGMASMTGGQQMGRDLYDDDDKAPSTCSKPTCPPPELLGGPSVFIFPPKPKDTLMISRTPEVTCVVVDVSQDDPEVQFTWYINNEQVRTARPPLREQQFNSTIRVVSTLPIAHQDWLRGKEFKCKVHNKALPAPIEKTISKARGQPLEPKVYTMGPPREELSSRSVSLTCMINGFYPSDISVEWEKNGKAEDNYKTTPAVLDSDGSYFLYSKLSVPTSEWQRGDVFTCSVMHEALHNHYTQKSISRSPGKDIVRSSKPTCPPPELLGGPSVFIFPPKPKDTLMISRTPEVTCVVVDVSQDDPEVQFTWYINNEQVRTARPPLREQQFNSTIRVVSTLPIAHQDWLRGKEFKCKVHNKALPAPIEKTISKARGQPLEPKVYTMGPPREELSSRSVSLTCMINGFYPSDISVEWEKNGKAEDNYKTTPAVLDSDGSYFLYSKLSVPTSEWQRGDVFTCSVMHEALHNHYTQKSISRSPGK
notes: The supernatants hold monomeric and dimeric forms; also called dimeric polypeptides; polypeptides in dimeric form
